Measurements published in patent US20210371525A1.

Molecular target: CD277 (BTN3A1) on Jeko-1 cells (UniProt O00481)
Test: cell-based or functional assay

CD277 (BTN3A1) on Jeko-1 cells, sequence (O00481 30-513 limits assumed): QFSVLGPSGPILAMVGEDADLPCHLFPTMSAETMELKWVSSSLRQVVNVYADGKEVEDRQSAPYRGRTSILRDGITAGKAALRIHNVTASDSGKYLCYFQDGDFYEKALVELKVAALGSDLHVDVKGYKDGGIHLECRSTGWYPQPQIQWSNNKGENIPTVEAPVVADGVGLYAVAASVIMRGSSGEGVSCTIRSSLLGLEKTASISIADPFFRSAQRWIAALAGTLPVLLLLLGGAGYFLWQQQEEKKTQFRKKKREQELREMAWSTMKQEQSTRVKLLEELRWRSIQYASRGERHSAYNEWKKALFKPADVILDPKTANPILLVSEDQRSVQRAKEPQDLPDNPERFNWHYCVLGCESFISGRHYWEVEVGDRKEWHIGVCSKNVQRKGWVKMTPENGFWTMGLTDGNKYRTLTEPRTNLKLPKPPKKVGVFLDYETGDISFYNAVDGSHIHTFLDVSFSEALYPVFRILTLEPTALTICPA

decrease of 1D7-5C8-induced lysis of Jeko-1 cells with anti-CD277 mAb 103.2 (10 µg/mL): 11.4%
specific lysis of Jeko-1 cells at 10 pM 1D7-5C8 with anti-CD277 mAb 103.2 (10 µg/mL): 18.2%
B1: human Vγ9Vδ2-TCR on cultured Vγ9Vδ2-T cells (TCR, V domains shown)
V domain 1: AGHLEQPQISSTKTLSKTARLECVVSGITISATSVYWYRERPGEVIQFLVSISYDGTVRKESGIPSGKFEVDRIPETSTSTLTIHNVEKQDIATYYCALWEAQQELGKKIKVFGPGTKLIITD
V domain 2: AIELVPEHQTVPVSIGVPATLRCSMKGEAIGNYYINWYRKTQGNTMTFIYREKDIYGPGFKDNFQGDIDIAKNLAVLKILAPSERDEGSYYCACDTLGMGGEYTDKLIFGKGTRVTVEP
